US20050239730A1, “Plasmodium falciparum erythrocyte binding protein baebl for use as a vaccine” (priority 2001, published 2005)

Tested on: human erythrocytes
Assay: Modified erythrocyte binding assay: absorption/elution of metabolically labeled parasite proteins followed by immunoprecipitation
Source text: We have developed a new assay for measuring binding of BAEBL to erythrocytes. Previously, EBA-175 was identified in parasite proteins bound and eluted from human erythrocytes. Its identification was based on the fact that it was the most abundant and the highest molecular weight protein eluted from these erythrocytes. Lower molecular weight proteins may be proteolytic fragments of EBA-175 or products of different genes. To positively identify BAEBL, we immunoprecipitated BAEBL from proteins eluted from erythrocytes with anti-region II and anti-region VI.
We also modified the protocol in that we identified proteins removed from the supernatant by erythrocyte absorption. We determined the different quantities of erythrocytes required to remove BAEBL from the parasite supernatant. […] The protein was largely removed by absorbing twice with 50 μl of packed erythrocytes for some culture supernatants and by only one absorbtion with 50 μl for other supernatants. Therefore, on some samples, we absorbed with 25 μl, 50 μl once, and 50 μl twice for comparison between normal erythrocytes and mutant erythrocytes or enzyme-treated erythrocytes. The protein was also eluted from the first 50 μl of packed erythrocytes used for absorption.
Blood was collected in 10% citrate-phosphate-dextrose (vol/vol) and stored for up to 4 weeks at 4° C. At the time of study, the erythrocytes were washed three times in incomplete media (RPMI-1640; Life Technologies, Rockville, Md.) with 25 mM HEPES and 0.36 mM hypoxanthine (Sigma, St. Louis, Mo.). For neuraminidase treatment, 5.5 ml of a 5% (vol/vol) suspension of the washed human erythrocytes in incomplete media were incubated twice with 3 milliunits of neuraminidase (Vibrio cholerae; CalBiochem, La Jolla, Calif.) for 2 hr at 37° C. each time. For trypsin treatment, washed human erythrocytes were incubated with 1 mg/ml of tosyl-phenylalanine-chloromethyl-ketone-treated trypsin (Sigma) for 2 hr at 37° C. After trypsin treatment, the cells were washed once in incomplete medium and incubated with 2 mg/ml soybean trypsin inhibitor (Sigma) for 10 min at room temperature. The cells were washed twice before use in a study.
The glycophorin A and glycophorin B null erythrocytes [En(a-) and S-s-U-, respectively and the glycophorin D null/glycophorin C modified erythrocytes (Gerbich cells) were frozen within a few days of receipt and thawed by the Red Cross method (Mallory, D. ed. 1993 Immunohematology Methods and Procedures American Red Cross, National Reference Laboratory, Rockville, Md., pp. 125-1-125-2). Blood from a Gerbich donor was collected in 10% (vol/vol) anticoagulant citrate-phosphate-dextrose.
Other glycophorin C/D mutant cells (Leach, Gerbich, and Yus cells) had been stored in liquid nitrogen as frozen pellets (Judd, W. J. 1994 in: Methods in Immunohematology Montgomery Scientific Publications Durham, N.C., pp. 188-190) and thawed directly into PBS at 37° C.
Soluble, metabolically labeled parasite proteins were obtained from culture supernatant of schizont-infected erythrocytes that released merozoites in the absence of uninfected erythrocytes. The parasites were left to lyse and release proteins into the culture supernatant. The Dd2/Nm clone of P. falciparum was cultured as previously described (Kaneko, O. et al. 2000 Mol Biochem Parasitol 110: […]) with the following exceptions. Schizont-infected erythrocytes (5×10^7 per ml of culture medium) were used during the metabolic labeling. The culture supernatant was ultracentrifuged in a Beckman Optima TLX Ultracentrifuge (Beckman, Fullerton, Calif.) at 40,000 rpm (98,600×g) for 10 min at 4° C. before storage at −70° C.
Proteins in the supernatant and in the diluted eluate were immunoprecipitated as previously described (Kaneko, O. et al. 2000 Mol Biochem Parasitol 110: 135-146) with the following exceptions. […]

[1] = glycophorin C/D null erythrocytes of the Leach phenotype, preliminary experiments

B1: BAEBL: Plasmodium falciparum erythrocyte binding protein of the DBL-EBP family (SEQ ID NO: 2); here metabolically labeled protein from Dd2/Nm culture supernatant (protein, listed as Plasmodium falciparum)
chain: MKGYFNIYFLIPLIFLYNVIRINESIIGRTLYNRQDESSDISRVNSPELNNNHKTNIYDSDYEDVNNKLINSFVENKSVKKKRSLSFINNKTKSYDIIPPSYSYRNDKFNSLSENEDNSGNTNSNNFANTSEISIGKDNKQYTFIQKRTHLFACGIKRKSIKWICRENSEKITVCVPDRKIQLCVANFLNSRLETMEKFKEIFLISVNTEAKLLYNKNEGKDPSIFCNELRNSFSDFRSSFIGDDMDFGGNTDRVKGYINTKFSDYYKEKNVEKLNNIKKEWWEKNKANLWNHMIVNHKGNISKECAIIPAEEPQINLWIKEWNENFLMEKKRLFLNIKDKCVENKKYEACFGGCRLPCSSYTSFMKKSKTQMEVLTNLYKKKNSGVDKNNFLNDLFKKNNKNDLDDFFKNEKEYDDLCDCRYTATIIKSFLNGPAKNDVDIASQINVNDLRGFGCNYKSNNEKSWNCTGTFTNKFPGTCEPPRRQTLCLGRTYLLHRGHEEDYKEHLLGASIYEAQLLKYKYKEKDENALCSIIQNSYADLADIIKGSDIIKDYYGKKMEENLNKVNKDKKRNEESLKIFREKWWDENKENVWKVMSAVLKNKETCKDYDKFQKIPQFLRWFKEWGDDFCEKRKEKIYSFESFKVECKKKDCDENTCKNKCSEYKKWIDLKKSEYEKQVDKYTKDKNKKMYDNIDEVKNKEANVYLKEKSKECKDVNFDDKIFNESPNEYEDMCKKCDEIKYLNEIKYPKTKHDIYDIDTFSDTFGDGTPISINANINEQQSGKDTSNTGNSETSDSPVSHEPESDAAINVEKLSGDESSSETRGILDINDPSVTNNVNEVHDASNTQGSVSNTSDITNGHSESSLNRTTNAQDIKIGRSGNEQSDNQENSSHSSDNSGSLTIGQVPSEDNTQNTYDSQNPHRDTPNALASLPSDDKINEIEGFDSSRDSENGRGDTTSNTHDVRRTNIVSERRVNSHDFIRNGMANNNAHHQYITQIENNGIIRGQEESAGNSVNYKDNPKRSNFSSENDHKKNIQEYNSRDTKRVREEIIKLSKQNKCNNEYSMEYCTYSDERNSSPGPCSREERKKLCCQISDYCLKYFNFYSIEYYNCIKSEIKSPEYKCFKSEGQSSIPYFAAGGILVVIVLLLSSASRMGKSNEEYDIGESNIEATFEENNYLNKLSRIFNQEVQETNISDYSEYNYNEKNMY
modifications: metabolic label
notes: here metabolically labeled protein from Dd2/Nm culture supernatant
- Binding to En(a-) erythrocytes (En(a-) erythrocytes, which lack glycophorin A): bound to these erythrocytes in a similar manner as to normal erythrocytes
- Binding to S-s-U- erythrocytes (S-s-U- erythrocytes that lacked glycophorin B): bound
- Elution from Gerbich and normal erythrocytes (fresh Gerbich erythrocytes vs normal erythrocytes): eluted from normal but not Gerbich erythrocytes
- Absorption from culture supernatant by Gerbich cells compared with normal erythrocytes (fresh blood from a person with the Gerbich mutation, two separate experiments): required twice as many Gerbich cells
- Detection in eluate of Leach erythrocytes [1]: never detected
- Detection in parasite supernatant absorbed with Leach erythrocytes [1]: not detected
- Binding to neuraminidase-treated human erythrocytes (neuraminidase-treated erythrocytes, Dd2/Nm culture supernatant): eliminated the binding
- Elution from neuraminidase-treated normal erythrocytes (neuraminidase-treated normal erythrocytes): did not elute
- Binding to Gerbich erythrocytes (pellet-frozen Gerbich (-2, -3, -4) erythrocytes): reduced binding
- Binding to Yus erythrocytes (pellet-frozen Yus (-2, -3, -4) erythrocytes): reduced binding
- Binding to trypsin-treated human erythrocytes (trypsin-treated erythrocytes, Dd2/Nm culture supernatant): eliminated the binding
